Target: ubiquitin (UniProt P0CG48 1-76)
Experiment: NMR titration

B1: RAD23A UBA1 domain (aa 160–205) (domain or fragment)
chain: not shown
Q: Does B1 bind?
A: binds
